Biological target: CaM-GST on Sepharose beads (UniProt P0DP23)
Assay: pull-down

CaMKIIα-Venus, sequence (P11275 whole entry): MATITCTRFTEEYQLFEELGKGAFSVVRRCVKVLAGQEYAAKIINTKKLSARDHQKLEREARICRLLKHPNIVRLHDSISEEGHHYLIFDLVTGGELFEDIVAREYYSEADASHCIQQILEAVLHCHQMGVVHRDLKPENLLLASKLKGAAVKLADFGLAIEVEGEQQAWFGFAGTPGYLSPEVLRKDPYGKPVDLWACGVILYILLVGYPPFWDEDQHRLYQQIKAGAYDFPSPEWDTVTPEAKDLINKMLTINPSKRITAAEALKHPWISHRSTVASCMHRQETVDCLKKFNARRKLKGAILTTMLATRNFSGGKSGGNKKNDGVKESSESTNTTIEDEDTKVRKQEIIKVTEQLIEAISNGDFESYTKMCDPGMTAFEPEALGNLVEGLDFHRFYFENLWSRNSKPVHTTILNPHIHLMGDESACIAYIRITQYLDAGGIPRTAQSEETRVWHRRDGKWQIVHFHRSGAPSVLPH
human Ano1(ac) (natural protein), sequence (Q5XXA6 whole entry): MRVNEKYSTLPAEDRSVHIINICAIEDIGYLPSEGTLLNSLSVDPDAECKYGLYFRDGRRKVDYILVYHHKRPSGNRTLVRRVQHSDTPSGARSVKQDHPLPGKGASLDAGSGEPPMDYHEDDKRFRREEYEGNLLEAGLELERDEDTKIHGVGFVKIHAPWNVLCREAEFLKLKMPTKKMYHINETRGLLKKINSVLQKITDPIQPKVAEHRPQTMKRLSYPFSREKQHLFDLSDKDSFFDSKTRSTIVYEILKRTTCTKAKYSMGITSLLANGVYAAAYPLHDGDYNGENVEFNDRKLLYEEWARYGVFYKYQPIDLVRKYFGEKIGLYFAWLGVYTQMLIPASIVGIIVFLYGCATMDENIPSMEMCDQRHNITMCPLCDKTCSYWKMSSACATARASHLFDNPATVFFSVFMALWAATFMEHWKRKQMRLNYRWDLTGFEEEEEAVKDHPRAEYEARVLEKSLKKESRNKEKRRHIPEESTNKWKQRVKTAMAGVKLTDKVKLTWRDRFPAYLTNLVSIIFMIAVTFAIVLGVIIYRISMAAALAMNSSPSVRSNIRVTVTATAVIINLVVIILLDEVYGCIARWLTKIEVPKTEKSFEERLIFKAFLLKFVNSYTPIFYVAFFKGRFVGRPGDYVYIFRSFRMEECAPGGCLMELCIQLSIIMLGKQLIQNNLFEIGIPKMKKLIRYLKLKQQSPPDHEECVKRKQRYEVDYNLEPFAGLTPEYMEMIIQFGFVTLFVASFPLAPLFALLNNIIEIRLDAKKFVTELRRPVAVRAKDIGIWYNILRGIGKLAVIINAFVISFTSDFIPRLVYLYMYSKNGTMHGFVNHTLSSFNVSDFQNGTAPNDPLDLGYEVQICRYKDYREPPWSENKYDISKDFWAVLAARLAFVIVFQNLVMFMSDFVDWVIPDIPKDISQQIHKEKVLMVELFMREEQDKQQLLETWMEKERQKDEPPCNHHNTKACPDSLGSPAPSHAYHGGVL
mAno1-FLAG(3X), sequence (Q8BHY3 whole entry): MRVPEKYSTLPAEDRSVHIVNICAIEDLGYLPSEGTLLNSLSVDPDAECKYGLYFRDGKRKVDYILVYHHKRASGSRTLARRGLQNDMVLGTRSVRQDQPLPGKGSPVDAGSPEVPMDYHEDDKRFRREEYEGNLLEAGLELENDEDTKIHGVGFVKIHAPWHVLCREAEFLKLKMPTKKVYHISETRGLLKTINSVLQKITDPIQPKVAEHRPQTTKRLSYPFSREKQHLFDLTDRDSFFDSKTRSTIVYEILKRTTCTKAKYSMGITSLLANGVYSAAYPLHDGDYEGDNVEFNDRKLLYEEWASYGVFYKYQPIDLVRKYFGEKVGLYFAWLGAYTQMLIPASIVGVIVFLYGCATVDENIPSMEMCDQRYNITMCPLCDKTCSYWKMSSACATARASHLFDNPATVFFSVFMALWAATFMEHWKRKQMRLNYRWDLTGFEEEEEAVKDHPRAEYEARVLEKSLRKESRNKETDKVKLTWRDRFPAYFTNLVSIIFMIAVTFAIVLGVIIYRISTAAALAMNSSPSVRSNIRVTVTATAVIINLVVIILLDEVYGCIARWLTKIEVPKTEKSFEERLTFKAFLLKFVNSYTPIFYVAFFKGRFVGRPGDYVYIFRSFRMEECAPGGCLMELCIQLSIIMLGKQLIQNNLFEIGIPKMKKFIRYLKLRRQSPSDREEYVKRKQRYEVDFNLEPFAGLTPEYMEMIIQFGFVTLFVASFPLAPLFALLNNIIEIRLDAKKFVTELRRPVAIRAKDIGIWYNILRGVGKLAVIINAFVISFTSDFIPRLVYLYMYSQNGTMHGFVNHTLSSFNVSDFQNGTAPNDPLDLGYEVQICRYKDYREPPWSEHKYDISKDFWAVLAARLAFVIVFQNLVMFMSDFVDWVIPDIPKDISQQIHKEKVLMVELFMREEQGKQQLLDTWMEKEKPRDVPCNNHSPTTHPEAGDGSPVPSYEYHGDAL

CaMKIIα-Venus (from UniProt P11275 1-478) (enzyme)
fold bound with Ca2+ over without Ca2+: 10 fold
percent of the protein in the lysate that bound: 100%

human Ano1(ac) (natural protein)
fold bound with Ca2+ over without Ca2+: 2 fold
percent of the protein in the lysate that bound: < 1%

mAno1-FLAG(3X) (from UniProt Q8BHY3 1-960) (natural protein)
percent of the protein in the lysate that bound: < 1%

— article PMC4001774
